{
  "source": "paper PMC11969719",
  "about": "“Rapid synthesis of glycosylated insulins by flow-based peptide synthesis” (Chemical Science, 2025)",
  "origin": "cited, not measured here",
  "conditions": "ref [5c,18]",
  "text": "To address this issue, we incorporated an isoacyl dipeptide unit at the Thr^A8-Ser^A9 position (superscripts indicate positions in the A-chain), following a previous report,[8b] as the isoacyl dipeptide improves both peptide solubility and synthetic efficiency.[19]",
  "data": [
    {"substance": "A-chain: insulin A-chain, 21-amino acid chain of human insulin", "values": [
      {"measurement": "solubility (in words)", "result": "poor solubility"}
    ]}
  ]
}
